Laboratory results taken from article PMC5415106, “Dpb11 may function with RPA and DNA to initiate DNA replication” (PLoS ONE, 2017).

T1: GST-Dpb11-wild-type (budding yeast, UniProt P47027 1-764)
T1 construct: Dpb11, budding yeast, full-length; also called Full-length Dpb11; wild-type Dpb11
T1 sequence (looked up): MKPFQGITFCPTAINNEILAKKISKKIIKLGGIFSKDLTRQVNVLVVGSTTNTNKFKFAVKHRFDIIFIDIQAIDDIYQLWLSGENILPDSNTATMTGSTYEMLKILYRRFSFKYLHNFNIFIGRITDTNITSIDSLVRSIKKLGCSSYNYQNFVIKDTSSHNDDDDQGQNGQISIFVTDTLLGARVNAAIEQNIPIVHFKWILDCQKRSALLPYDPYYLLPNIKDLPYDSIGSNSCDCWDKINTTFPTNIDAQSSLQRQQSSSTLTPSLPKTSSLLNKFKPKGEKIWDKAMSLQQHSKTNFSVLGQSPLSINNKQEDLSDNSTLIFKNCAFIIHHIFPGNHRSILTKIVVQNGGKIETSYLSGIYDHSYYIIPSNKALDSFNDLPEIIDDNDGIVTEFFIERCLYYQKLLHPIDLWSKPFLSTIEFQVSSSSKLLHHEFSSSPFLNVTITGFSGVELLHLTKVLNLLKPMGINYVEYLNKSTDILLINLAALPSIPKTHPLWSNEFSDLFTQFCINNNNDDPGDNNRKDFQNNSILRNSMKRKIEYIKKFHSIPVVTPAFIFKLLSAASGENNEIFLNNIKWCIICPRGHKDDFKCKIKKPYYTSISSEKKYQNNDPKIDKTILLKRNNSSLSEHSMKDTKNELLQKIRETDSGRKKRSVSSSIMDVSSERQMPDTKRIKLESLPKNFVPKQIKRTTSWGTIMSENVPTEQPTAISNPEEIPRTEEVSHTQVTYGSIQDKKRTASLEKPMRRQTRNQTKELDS

B1: PKA-Sld2T84D (natural protein, budding yeast, UniProt P34252 1-453, looked up)
chain: MYSFELDKLKIELKTWEHDFIDKNKREPTRDDIKSLRTVRQMYKQYSTLKKKQSLQRQKVDTQESVELPAHKKDHDEVVEIGPDPQVYGKAISIFDMNLSPIKPIYMTFTNNIDVNNDNSKTISNESSPRKTILLKSSPADRTLVAEPISSVKRQLNFQMLNASSTRTPTSSPCKNRNGKLVEIKKCSPTINPPLESGKPSGYYGPNSPLKLDEENIHLNISLNSSTKRRLQIAYPSLQKTPSKDQADISTSFSPSPLIRRPLTKSLIELAREHTEIVKEFGVLQEEDIEEEEEGEEGENGYDEKNHEDDFGLEDELIRPKVVKDIFQEDDDNDDSQAREDTFIRKRPKRRKVIRRLRDNDPETETAGFERDVHKELVKLKRRKVAEFLGSTSQISDTEFEHDPEASSGVVSSEQKPTAKRKGRKKYNLVSNNFRRLKLPKKNRFSNGRWGRR
modifications: 32P-phosphate on the artificial PKA site
notes: Sld2, budding yeast, with T84D; not shown: PKA site, N-terminal, kept
B2: GST-Dpb11-m1,2,3,5,ΔC (natural protein, budding yeast, UniProt P47027 1-615, looked up)
chain: MKPFQGITFCPTAINNEILAKKISKKIIKLGGIFSKDLTRQVNVLVVGSTTNTNKFKFAVKHRFDIIFIDIQAIDDIYQLWLSGENILPDSNTATMTGSTYEMLKILYRRFSFKYLHNFNIFIGRITDTNITSIDSLVRSIKKLGCSSYNYQNFVIKDTSSHNDDDDQGQNGQISIFVTDTLLGARVNAAIEQNIPIVHFKWILDCQKRSALLPYDPYYLLPNIKDLPYDSIGSNSCDCWDKINTTFPTNIDAQSSLQRQQSSSTLTPSLPKTSSLLNKFKPKGEKIWDKAMSLQQHSKTNFSVLGQSPLSINNKQEDLSDNSTLIFKNCAFIIHHIFPGNHRSILTKIVVQNGGKIETSYLSGIYDHSYYIIPSNKALDSFNDLPEIIDDNDGIVTEFFIERCLYYQKLLHPIDLWSKPFLSTIEFQVSSSSKLLHHEFSSSPFLNVTITGFSGVELLHLTEVLNLLEPMGINYVEYLNKSTDILLINLAALPSIPKTHPLWSNEFSDLFTQFCINNNNDDPGDNNRKDFQNNSILENSMKRKIEYIEKFHSIPVVTPAFIFKLLSAASGENNEIFLNNIKWCIICPRGHKDDFKCKIKKPYYTSISSEKKYQN
notes: Dpb11, budding yeast; ΔC = deletion of amino acids 616 to 764 (the C-terminus), so residues up to 615 remain; m1,2,3,5 = K463E, K469E, R538E, K549E in the BRCT4 motif; also called Dpb11-K463E, K469E, R538E,K549E, Δaa616-764; Dpb11-m1,2,3,4,ΔC (as printed once)
B3: Cdc45 (purified, radiolabelled) (natural protein, budding yeast, UniProt Q08032 1-650, looked up)
chain: MYYGISQFSEAYNKILRNSSSHSSCQLVIFVSCLNIDALCATKMLSLLFKKQLVQSQIVPIFGYSELRRHYSQLDDNINSLLLVGFGGVIDLEAFLEIDPQEYVIDTDEKSGEQSFRRDIYVLDAHRPWNLDNIFGSQIIQCFDDGTVDDTLGEQKEAYYKLLELDEESGDDELSGDENDNNGGDDEATDADEVTDEDEEDEDETISNKRGNSSIGPNDLSKRKQRKKQIHEYEGVLEEYYSQGTTVVNSISAQIYSLLSAIGETNLSNLWLNILGTTSLDIAYAQVYNRLYPLLQDEVKRLTPSSRNSVKTPDTLTLNIQPDYYLFLLRHSSLYDSFYYSNYVNAKLSLWNENGKKRLHKMFARMGIPLSTAQETWLYMDHSIKRELGIIFDKNLDRYGLQDIIRDGFVRTLGYRGSISASEFVEALTALLEVGNSTDKDSVKINNDNNDDTDGEEEEDNSAQKLTNLRKRWVSNFWLSWDALDDRKVELLNRGIQLAQDLQRAIFNTGVAILEKKLIKHLRIYRLCVLQDGPDLDLYRNPLTLLRLGNWLIECCAESEDKQLLPMVLASIDENTDTYLVAGLTPRYPRGLDTIHTKKPILNNFSMAFQQITAETDAKVRIDNFESSIIEIRREDLSPFLEKLTLSGLL
notes: Cdc45, budding yeast; The legend says only 'Similar to (A), except Cdc45 was used in place of Sld2T84D'; not shown: PKA tag (inferred from the radiolabelling method), N-terminal, kept

How the values were obtained:
Assay in all cases: pull-down; 10 pmol GST-tagged Dpb11 with 32P-labelled protein, no DNA; GST-binding buffer (40 mM Tris-HCl pH 7.5, 100 mM NaCl, 0.1 mM EDTA, 10% glycerol, 0.1% Triton X-100, 1 mM DTT, 0.1 mg/ml BSA), 25°C 1 h; glutathione Sepharose, two washes; SDS-PAGE and phosphorimaging
Conditions in all cases: both partners purified
GST-Dpb11-m1,2,3,5,ΔC = biological target: B2
GST-Dpb11-wild-type = biological target: T1, GST-Dpb11-wild-type
[1] = biological target: T2, Mcm2-7 complex with a PKA tag at the N-terminus of Mcm2 (budding yeast, UniProt P29469 1-868; P24279 1-971; P30665 1-933; P29496 1-775; P53091 1-1017; P38132 …, 32P-phosphate on the PKA tag)
T2 construct: Mcm2, budding yeast; Mcm3, budding yeast; Mcm4, budding yeast; Mcm5, budding yeast; Mcm6, budding yeast; Mcm7, budding yeast (named only within 'Mcm2-7'); not shown: PKA tag, N-terminal, kept; copies: + + + + +

[2] = biological target: B3

Binder | binding result (GST-Dpb11-m1,2,3,5,ΔC) | binding result (GST-Dpb11-wild-type) | binding result [1] | binding result [2]
B1 | binds | binds |  | 
B2 |  |  | binds | binds
B3 |  | binds |  | 
